Laboratory results reported in PMC2756588.

T1: Abp1, P15891
T1 sequence (P15891 535-592, looked up): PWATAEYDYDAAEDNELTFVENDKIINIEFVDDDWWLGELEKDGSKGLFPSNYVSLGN

T2: Bbc1, P47068
T2 sequence (P47068 1-78, looked up): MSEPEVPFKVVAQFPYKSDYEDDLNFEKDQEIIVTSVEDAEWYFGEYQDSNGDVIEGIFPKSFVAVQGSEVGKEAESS

T3: Boi1, P38041
T3 sequence (P38041 1-86, looked up): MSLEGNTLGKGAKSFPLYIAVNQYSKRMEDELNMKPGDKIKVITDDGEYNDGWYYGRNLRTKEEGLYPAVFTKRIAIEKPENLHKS

T4: Boi2, P39969
T4 sequence (P39969 32-116, looked up): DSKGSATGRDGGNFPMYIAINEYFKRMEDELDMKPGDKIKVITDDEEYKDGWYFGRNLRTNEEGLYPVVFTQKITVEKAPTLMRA

T5: Bud14, P27637
T5 sequence (P27637 247-328, looked up): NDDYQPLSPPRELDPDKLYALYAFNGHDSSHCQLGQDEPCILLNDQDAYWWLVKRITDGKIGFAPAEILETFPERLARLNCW

T6: Bzz1-1, P38822
T6 sequence (P38822 478-572, looked up): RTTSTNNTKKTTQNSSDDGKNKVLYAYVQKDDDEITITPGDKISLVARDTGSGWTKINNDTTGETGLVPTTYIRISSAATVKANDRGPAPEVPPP

T7: Bzz1-2, P38822
T7 sequence (P38822 568-633, looked up): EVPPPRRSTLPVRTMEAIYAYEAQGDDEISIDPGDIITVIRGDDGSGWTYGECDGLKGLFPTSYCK

T8: Cdc25, P04821
T8 sequence (P04821 50-136, looked up): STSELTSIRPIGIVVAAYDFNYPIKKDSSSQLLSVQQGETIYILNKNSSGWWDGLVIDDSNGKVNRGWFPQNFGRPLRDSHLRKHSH

T9: Cyk3, Q07533
T9 sequence (Q07533 1-83, looked up): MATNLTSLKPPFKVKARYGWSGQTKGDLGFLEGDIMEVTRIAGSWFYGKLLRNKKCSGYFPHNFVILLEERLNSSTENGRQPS

T10: Fus1, P11710
T10 sequence (P11710 432-512, looked up): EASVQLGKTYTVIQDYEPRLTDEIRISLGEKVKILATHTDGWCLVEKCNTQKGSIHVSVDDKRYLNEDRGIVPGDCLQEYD

T11: Hof1, Q05080
T11 sequence (Q05080 590-669, looked up): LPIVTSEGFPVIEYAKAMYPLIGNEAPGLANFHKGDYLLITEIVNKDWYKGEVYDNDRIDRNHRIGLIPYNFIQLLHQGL

T12: Hse1, P38753
T12 sequence (P38753 208-285, looked up): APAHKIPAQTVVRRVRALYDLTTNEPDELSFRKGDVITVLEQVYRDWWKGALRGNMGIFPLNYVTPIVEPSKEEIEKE

T13: Lsb1, P53281
T13 sequence (P53281 45-122, looked up): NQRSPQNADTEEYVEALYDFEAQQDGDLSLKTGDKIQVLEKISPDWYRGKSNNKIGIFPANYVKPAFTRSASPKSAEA

T14: Lsb3, P43603
T14 sequence (P43603 385-451, looked up): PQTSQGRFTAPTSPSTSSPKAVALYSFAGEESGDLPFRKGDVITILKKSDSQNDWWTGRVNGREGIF

T15: Lsb4, P32793
T15 sequence (P32793 402-468, looked up): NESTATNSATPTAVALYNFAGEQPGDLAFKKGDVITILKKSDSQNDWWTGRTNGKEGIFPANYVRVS

T16: Myo5, Q04439
T16 sequence (Q04439 1072-1160, looked up): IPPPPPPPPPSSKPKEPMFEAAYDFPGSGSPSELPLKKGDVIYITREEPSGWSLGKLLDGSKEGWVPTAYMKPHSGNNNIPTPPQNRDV

T17: Nbp2, Q12163
T17 sequence (Q12163 103-180, looked up): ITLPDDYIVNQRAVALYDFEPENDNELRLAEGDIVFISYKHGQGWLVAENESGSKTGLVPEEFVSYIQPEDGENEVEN

T18: Pex13, P80667
T18 sequence (P80667 295-386, looked up): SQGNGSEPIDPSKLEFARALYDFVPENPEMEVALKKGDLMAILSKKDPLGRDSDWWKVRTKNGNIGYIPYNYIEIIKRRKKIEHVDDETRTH

T19: Pin3, Q06449
T19 sequence (Q06449 53-122, looked up): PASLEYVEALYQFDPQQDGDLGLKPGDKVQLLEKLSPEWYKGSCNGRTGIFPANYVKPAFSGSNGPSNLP

T20: Sla1-2, P32790
T20 sequence (P32790 60-140, looked up): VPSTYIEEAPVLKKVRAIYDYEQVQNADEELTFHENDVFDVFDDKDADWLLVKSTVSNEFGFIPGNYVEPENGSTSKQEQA

T21: Sla1-3, P32790
T21 sequence (P32790 344-424, looked up): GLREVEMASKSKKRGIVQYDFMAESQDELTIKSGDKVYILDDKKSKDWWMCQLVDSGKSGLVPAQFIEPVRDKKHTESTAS


biological target: T1, Abp1, P15891; experiment: SPOT array; details: median of control spots 935

| SPOT intensity | Binder |
| --- | --- |
| 81 | QTMRQAPKRPDADVA |
| 87 | NSMRPPLLIPAATTK |
| 99 | PSTMDFPKLPSFQNS |

biological target: T2, Bbc1, P47068; experiment: SPOT array; details: median of control spots 796

| SPOT intensity | Binder |
| --- | --- |
| 90 | QTMRQAPKRPDADVA |
| 0 | NSMRPPLLIPAATTK |
| 0 | PSTMDFPKLPSFQNS |

biological target: Bem1-1, P29366; experiment: SPOT array; details: median of control spots 4282
Sequence (P29366 55-141): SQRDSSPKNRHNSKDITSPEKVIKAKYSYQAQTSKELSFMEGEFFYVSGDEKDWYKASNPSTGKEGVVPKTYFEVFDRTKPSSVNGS

| SPOT intensity | Binder |
| --- | --- |
| 1 | QTMRQAPKRPDADVA |
| 5 | NSMRPPLLIPAATTK |
| 0 | PSTMDFPKLPSFQNS |

biological target: Bem1-2, P29366; experiment: SPOT array; details: median of control spots 4347
Sequence (P29366 139-227): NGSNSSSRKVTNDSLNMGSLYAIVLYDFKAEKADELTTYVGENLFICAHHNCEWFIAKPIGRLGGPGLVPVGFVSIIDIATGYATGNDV

| SPOT intensity | Binder |
| --- | --- |
| 65 | QTMRQAPKRPDADVA |
| 6 | NSMRPPLLIPAATTK |
| 8 | PSTMDFPKLPSFQNS |

biological target: T3, Boi1, P38041; experiment: SPOT array; details: median of control spots 1162

| SPOT intensity | Binder |
| --- | --- |
| 0 | QTMRQAPKRPDADVA |
| 0 | NSMRPPLLIPAATTK |
| 0 | PSTMDFPKLPSFQNS |

biological target: T4, Boi2, P39969; experiment: SPOT array; details: median of control spots 1161

| SPOT intensity | Binder |
| --- | --- |
| 0 | QTMRQAPKRPDADVA |
| 0 | NSMRPPLLIPAATTK |
| 0 | PSTMDFPKLPSFQNS |

biological target: T5, Bud14, P27637; experiment: SPOT array; details: median of control spots 956

| SPOT intensity | Binder |
| --- | --- |
| 0 | QTMRQAPKRPDADVA |
| 13 | NSMRPPLLIPAATTK |
| 1 | PSTMDFPKLPSFQNS |

biological target: T6, Bzz1-1, P38822; experiment: SPOT array; details: median of control spots 4446

| SPOT intensity | Binder |
| --- | --- |
| 0 | QTMRQAPKRPDADVA |
| 0 | NSMRPPLLIPAATTK |
| 0 | PSTMDFPKLPSFQNS |

biological target: T7, Bzz1-2, P38822; experiment: SPOT array; details: median of control spots 4538

| SPOT intensity | Binder |
| --- | --- |
| 28 | QTMRQAPKRPDADVA |
| 0 | NSMRPPLLIPAATTK |
| 0 | PSTMDFPKLPSFQNS |

biological target: T8, Cdc25, P04821; experiment: SPOT array; details: median of control spots 969

| SPOT intensity | Binder |
| --- | --- |
| 0 | QTMRQAPKRPDADVA |
| 37 | NSMRPPLLIPAATTK |
| 0 | PSTMDFPKLPSFQNS |

biological target: T9, Cyk3, Q07533; experiment: SPOT array; details: median of control spots 1451

| SPOT intensity | Binder |
| --- | --- |
| 0 | QTMRQAPKRPDADVA |
| 0 | NSMRPPLLIPAATTK |
| 2 | PSTMDFPKLPSFQNS |

biological target: T10, Fus1, P11710; experiment: SPOT array; details: median of control spots 1200

| SPOT intensity | Binder |
| --- | --- |
| 0 | QTMRQAPKRPDADVA |
| 0 | NSMRPPLLIPAATTK |
| 0 | PSTMDFPKLPSFQNS |

biological target: GST; experiment: SPOT array; details: median of control spots 978

| SPOT intensity | Binder |
| --- | --- |
| 1 | QTMRQAPKRPDADVA |
| 1 | NSMRPPLLIPAATTK |
| 0 | PSTMDFPKLPSFQNS |

biological target: T11, Hof1, Q05080; experiment: SPOT array; details: median of control spots 4086

| SPOT intensity | Binder |
| --- | --- |
| 0 | QTMRQAPKRPDADVA |
| 2 | NSMRPPLLIPAATTK |
| 307 | PSTMDFPKLPSFQNS |

biological target: T12, Hse1, P38753; experiment: SPOT array; details: median of control spots 1727

| SPOT intensity | Binder |
| --- | --- |
| 1 | QTMRQAPKRPDADVA |
| 5 | NSMRPPLLIPAATTK |
| 0 | PSTMDFPKLPSFQNS |

biological target: T13, Lsb1, P53281; experiment: SPOT array; details: median of control spots 388

| SPOT intensity | Binder |
| --- | --- |
| 211 | QTMRQAPKRPDADVA |
| 387 | NSMRPPLLIPAATTK |
| 44 | PSTMDFPKLPSFQNS |

biological target: T14, Lsb3, P43603; experiment: SPOT array; details: median of control spots 406

| SPOT intensity | Binder |
| --- | --- |
| 60 | QTMRQAPKRPDADVA |
| 25 | NSMRPPLLIPAATTK |
| 21 | PSTMDFPKLPSFQNS |

biological target: T15, Lsb4, P32793; experiment: SPOT array; details: median of control spots 397

| SPOT intensity | Binder |
| --- | --- |
| 115 | QTMRQAPKRPDADVA |
| 87 | NSMRPPLLIPAATTK |
| 67 | PSTMDFPKLPSFQNS |

biological target: Myo3, P36006; experiment: SPOT array; details: median of control spots 468

| SPOT intensity | Binder |
| --- | --- |
| 44 | QTMRQAPKRPDADVA |
| 40 | NSMRPPLLIPAATTK |
| 51 | PSTMDFPKLPSFQNS |

biological target: T16, Myo5, Q04439; experiment: SPOT array; details: median of control spots 471

| SPOT intensity | Binder |
| --- | --- |
| 103 | QTMRQAPKRPDADVA |
| 65 | NSMRPPLLIPAATTK |
| 77 | PSTMDFPKLPSFQNS |

biological target: T17, Nbp2, Q12163; experiment: SPOT array; details: median of control spots 357

| SPOT intensity | Binder |
| --- | --- |
| 989 | QTMRQAPKRPDADVA |
| 9 | NSMRPPLLIPAATTK |
| 57 | PSTMDFPKLPSFQNS |

biological target: T18, Pex13, P80667; experiment: SPOT array; details: median of control spots 1341

| SPOT intensity | Binder |
| --- | --- |
| 73 | QTMRQAPKRPDADVA |
| 47 | NSMRPPLLIPAATTK |
| 35 | PSTMDFPKLPSFQNS |

biological target: T19, Pin3, Q06449; experiment: SPOT array; details: median of control spots 2171

| SPOT intensity | Binder |
| --- | --- |
| 61 | QTMRQAPKRPDADVA |
| 40 | NSMRPPLLIPAATTK |
| 54 | PSTMDFPKLPSFQNS |

biological target: Rvs167, P39743; experiment: SPOT array; details: median of control spots 2707
Sequence (P39743 419-482): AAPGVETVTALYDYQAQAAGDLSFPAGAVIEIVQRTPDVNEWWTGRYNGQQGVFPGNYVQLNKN

| SPOT intensity | Binder |
| --- | --- |
| 10 | QTMRQAPKRPDADVA |
| 0 | NSMRPPLLIPAATTK |
| 2 | PSTMDFPKLPSFQNS |

biological target: Sho1, P40073; experiment: SPOT array; details: median of control spots 1148
Sequence (P40073 287-367): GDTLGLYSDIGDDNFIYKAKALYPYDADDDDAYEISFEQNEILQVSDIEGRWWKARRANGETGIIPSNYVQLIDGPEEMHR

| SPOT intensity | Binder |
| --- | --- |
| 21 | QTMRQAPKRPDADVA |
| 39 | NSMRPPLLIPAATTK |
| 25 | PSTMDFPKLPSFQNS |

biological target: T20, Sla1-2, P32790; experiment: SPOT array; details: median of control spots 712

| SPOT intensity | Binder |
| --- | --- |
| 19 | QTMRQAPKRPDADVA |
| 6 | NSMRPPLLIPAATTK |
| 7 | PSTMDFPKLPSFQNS |

biological target: T21, Sla1-3, P32790; experiment: SPOT array; details: median of control spots 5475

| SPOT intensity | Binder |
| --- | --- |
| 42 | QTMRQAPKRPDADVA |
| 0 | NSMRPPLLIPAATTK |
| 0 | PSTMDFPKLPSFQNS |
